Experimental data from PMC10470887.

Molecular target: SpGrx3 R47F mutant (Sphingomonas sp. PAMC 26621)
Assay: SEC; Superdex 200 prep grade XK16 column; 50 mM Tris·HCl, 50 mM NaCl, pH 8.0; molecular weight against a protein standard mix

stoichiometry N: 2
Substance: SpGrx3 R47F mutant (enzyme)
